# Measurements reported in patent US20210388110A1.
# Biological target: extracellular matrix (BD Matrigel)
# Assay: ECL on Matrigel-coated plate, relative to MRAH-G1d/MRAL-k0
row,Binder,ECM binding ratio (standard = 1)
1,"TR01H067-E2702GsKsc/GCH054-E2704sEpsc/L0222-k0 (bispecific antibody, human IgG4 S228P, kappa, N297A) heavy 1: QVQLVESGGGLVQPGRSLRLSCAASGFTFSNAWMHWVRQAPGKGLEWVAQIKDKSQNYATYYAESVKGRFTISRDDSKNSLYLQMNSLKTEDTAVYYCRYVHYAASYGVDAWGQGTTVTVSSASTKGPSVFPLAPCSRSTSESTAALGCLVKDYFPEPVTVSWNSGALTSGVHTFPAVLQSSGLYSLSSVVTVPSSSLGTKTYTCNVDHKPSNTKVDKRVESKYGPPCPPCPAPEFRGGPKVFLFPPKPKDTLMISRTPEVTCVVVDVSQEDPEVQFNWYVDGVEVHNAKTKPREEQFASTYRVVSVLTVLHQDWLNGKEYKCKVSNKGLPSSIEKTISKAKGQPREPQVYTLPPSQKEMTKNQVSLTCLVKGFYPSDIAVEWESNGQPENNYKTTPPVLDSDGSFFLYSKLTVDKSRWQEGNVFSCSVMHEALHNRYTQKSLSLSP heavy 2: QVQLVQSGAEVKKPGASVTVSCKASGYTFTDYEMHWIRQPPGEGLEWIGAIDGETPDTAYSEKFKGRVTLTADKSTSTAYMELSSLTSEDTAVYYCTRFYSYTYWGQGTLVTVSSASTKGPSVFPLAPCSRSTSESTAALGCLVKDYFPEPVTVSWNSGALTSGVHTFPAVLQSSGLYSLSSVVTVPSSSLGTQTYTCNVDHKPSNTKVDKRVESKYGPPCPPCPAPEFRGGPKVFLFPPKPKDTLMISRTPEVTCVVVDVSQEDPEVQFNWYVDGVEVHNAKTKPREEQFASTYRVVSVLTVLHQDWLNGKEYKCKVSNKGLPSSIEKTISKAKGQPREPQVYTLPPSQEEMTKNQVSLTCLVKGFYPSDIAVEWESNGQPENNYKTTPPVLDSDGSFFLYSKLTVDKSRWQEGNVFSCSVMHEALHNHYTQESLSLSP light: DIVMTQSPLSLPVTPGEPASISCRSSQSPVHSNRNTYIQWYQQKPGQAPRLLIYKVSNRFSGVPDRFSGSGSGTDFTLKISRVEAEDVGVYYCYQGTQVPYTFGQGTKLEIKRTVAAPSVFIFPPSDEQLKSGTASVVCLLNNFYPREAKVQWKVDNALQSGNSQESVTEQDSKDSTYSLSSTLTLSKADYEKHKVYACEVTHQGLSSPVTKSFNRGEC",0.6
2,"TR01H067-E2702GsKsc/GCH054-E2704sEpsc/L0201-k0 (bispecific antibody, human IgG4 S228P, kappa, N297A) heavy 1: QVQLVESGGGLVQPGRSLRLSCAASGFTFSNAWMHWVRQAPGKGLEWVAQIKDKSQNYATYYAESVKGRFTISRDDSKNSLYLQMNSLKTEDTAVYYCRYVHYAASYGVDAWGQGTTVTVSSASTKGPSVFPLAPCSRSTSESTAALGCLVKDYFPEPVTVSWNSGALTSGVHTFPAVLQSSGLYSLSSVVTVPSSSLGTKTYTCNVDHKPSNTKVDKRVESKYGPPCPPCPAPEFRGGPKVFLFPPKPKDTLMISRTPEVTCVVVDVSQEDPEVQFNWYVDGVEVHNAKTKPREEQFASTYRVVSVLTVLHQDWLNGKEYKCKVSNKGLPSSIEKTISKAKGQPREPQVYTLPPSQKEMTKNQVSLTCLVKGFYPSDIAVEWESNGQPENNYKTTPPVLDSDGSFFLYSKLTVDKSRWQEGNVFSCSVMHEALHNRYTQKSLSLSP heavy 2: QVQLVQSGAEVKKPGASVTVSCKASGYTFTDYEMHWIRQPPGEGLEWIGAIDGETPDTAYSEKFKGRVTLTADKSTSTAYMELSSLTSEDTAVYYCTRFYSYTYWGQGTLVTVSSASTKGPSVFPLAPCSRSTSESTAALGCLVKDYFPEPVTVSWNSGALTSGVHTFPAVLQSSGLYSLSSVVTVPSSSLGTQTYTCNVDHKPSNTKVDKRVESKYGPPCPPCPAPEFRGGPKVFLFPPKPKDTLMISRTPEVTCVVVDVSQEDPEVQFNWYVDGVEVHNAKTKPREEQFASTYRVVSVLTVLHQDWLNGKEYKCKVSNKGLPSSIEKTISKAKGQPREPQVYTLPPSQEEMTKNQVSLTCLVKGFYPSDIAVEWESNGQPENNYKTTPPVLDSDGSFFLYSKLTVDKSRWQEGNVFSCSVMHEALHNHYTQESLSLSP light: DIVMTQSPLSLPVTPGEPASISCRSSQPPVHSNRNTYLHWYQQKPGQAPRLLIYKVSNRFSGVPDRFSGSGSGTDFTLKISRVEAEDVGVYYCGQGTQVPYTFGQGTKLEIKRTVAAPSVFIFPPSDEQLKSGTASVVCLLNNFYPREAKVQWKVDNALQSGNSQESVTEQDSKDSTYSLSSTLTLSKADYEKHKVYACEVTHQGLSSPVTKSFNRGEC",0.5

# More lines, now with the values ahead:
row,ECM binding ratio (standard = 1),Binder
1,0.4,"TR01H109-E2702GsKsc/GCH094-E2704sEpsc/L0011-k0 (bispecific antibody, human IgG4 S228P, kappa, N297A) heavy 1: QVQLVESGGGLVQPGRSLRLSCAASGFTFSNAWMHWVRQAPGKGLEWVAQIKDKSQNYATYVAESVKGRFTISRDDSKNSLYLQMNSLKTEDTAVYYCRYVHYAAGYGVDAWGQGTTVTVSSASTKGPSVFPLAPCSRSTSESTAALGCLVKDYFPEPVTVSWNSGALTSGVHTFPAVLQSSGLYSLSSVVTVPSSSLGTKTYTCNVDHKPSNTKVDKRVESKYGPPCPPCPAPEFRGGPKVFLFPPKPKDTLMISRTPEVTCVVVDVSQEDPEVQFNWYVDGVEVHNAKTKPREEQFASTYRVVSVLTVLHQDWLNGKEYKCKVSNKGLPSSIEKTISKAKGQPREPQVYTLPPSQKEMTKNQVSLTCLVKGFYPSDIAVEWESNGQPENNYKTTPPVLDSDGSFFLYSKLTVDKSRWQEGNVFSCSVMHEALHNRYTQKSLSLSP heavy 2: QVQLVQSGAEVKKPGASVTVSCKASGYTFTDYEMHWVRQAPGEGLEWMGAIDGETPDTAYSEKFKGRVTLTADKSTSTAYMELSSLTSEDTAVYYCTRFYSYTYWGQGTLVTVSSASTKGPSVFPLAPCSRSTSESTAALGCLVKDYFPEPVTVSWNSGALTSGVHTFPAVLQSSGLYSLSSVVTVPSSSLGTQTYTCNVDHKPSNTKVDKRVESKYGPPCPPCPAPEFRGGPKVFLFPPKPKDTLMISRTPEVTCVVVDVSQEDPEVQFNWYVDGVEVHNAKTKPREEQFASTYRVVSVLTVLHQDWLNGKEYKCKVSNKGLPSSIEKTISKAKGQPREPQVYTLPPSQEEMTKNQVSLTCLVKGFYPSDIAVEWESNGQPENNYKTTPPVLDSDGSFFLYSKLTVDKSRWQEGNVFSCSVMHEALHNHYTQESLSLSP light: DIVMTQSPLSLPVTPGEPASISCRSSQPLVHSNRNTYLHWYQQKPGQAPRLLIYKVSNRFSGVPDRFSGSGSGTDFTLKISRVEAEDVGVYYCGQGTQVPYTFGQGTKLEIKRTVAAPSVFIFPPSDEQLKSGTASVVCLLNNFYPREAKVQWKVDNALQSGNSQESVTEQDSKDSTYSLSSTLTLSKADYEKHKVYACEVTHQGLSSPVTKSFNRGEC"
2,0.3,"TR01H113-E2702sKsc/GCH065-E2704sEpsc/L0011-k0 (bispecific antibody, human IgG4 S228P, kappa, N297A) heavy 1: QVQLVESGGGVVQPGGSLRLSCAASGFTFSNAWMHWVRQAPGKGLEWVAQIKDKSQNYATYVAESVKGRFTISRADSKNSIYLQMNSLKTEDTAVYYCRYVHYAAGYGVDIWGQGTTVTVSSASTKGPSVFPLAPCSRSTSESTAALGCLVKDYFPEPVTVSWNSGALTSGVHTFPAVLQSSGLYSLSSVVTVPSSSLGTKTYTCNVDHKPSNTKVDKRVESKYGPPCPPCPAPEFRGGPKVFLFPPKPKDTLMISRTPEVTCVVVDVSQEDPEVQFNWYVDGVEVHNAKTKPREEQFASTYRVVSVLTVLHQDWLNGKEYKCKVSNKGLPSSIEKTISKAKGQPREPQVYTLPPSQKEMTKNQVSLTCLVKGFYPSDIAVEWESNGQPENNYKTTPPVLDSDGSFFLYSKLTVDKSRWQEGNVFSCSVMHEALHNHYTQKSLSLSP heavy 2: QVQLVQSGAEVKKPGASVTVSCKASGYTFTDYEMHWIRQPPGEGLEWIGAIDGPTPDTAYSEKFKGRVTLTADKSTSTAYMELSSLTSEDTAVYYCTRFYSYTYWGQGTLVTVSSASTKGPSVFPLAPCSRSTSESTAALGCLVKDYFPEPVTVSWNSGALTSGVHTFPAVLQSSGLYSLSSVVTVPSSSLGTQTYTCNVDHKPSNTKVDKRVESKYGPPCPPCPAPEFRGGPKVFLFPPKPKDTLMISRTPEVTCVVVDVSQEDPEVQFNWYVDGVEVHNAKTKPREEQFASTYRVVSVLTVLHQDWLNGKEYKCKVSNKGLPSSIEKTISKAKGQPREPQVYTLPPSQEEMTKNQVSLTCLVKGFYPSDIAVEWESNGQPENNYKTTPPVLDSDGSFFLYSKLTVDKSRWQEGNVFSCSVMHEALHNHYTQESLSLSP light: DIVMTQSPLSLPVTPGEPASISCRSSQPLVHSNRNTYLHWYQQKPGQAPRLLIYKVSNRFSGVPDRFSGSGSGTDFTLKISRVEAEDVGVYYCGQGTQVPYTFGQGTKLEIKRTVAAPSVFIFPPSDEQLKSGTASVVCLLNNFYPREAKVQWKVDNALQSGNSQESVTEQDSKDSTYSLSSTLTLSKADYEKHKVYACEVTHQGLSSPVTKSFNRGEC"
